What is called Kd is the free concentration of one partner at which half of the binding sites on the other are occupied at equilibrium, for simple one-to-one binding. A high value points to lower affinity.

9 molecules from paper PMC3114436 (Molecular cell, 2008) can be followed below.

Substitutions are numbered along the chain they refer to. Names may count otherwise. No end group written: not given here.

One assay deals with Caulobacter ClpS (Caulobacter vibrioides, UniProt Q9A5I0). Nature of the assay: ClpS binding assay by fluorescence anisotropy. Also noted: species or system Caulobacter crescentus. The following applies: Fig. 3B. (In fluorescence polarisation assays a small probe gives low polarisation when free and higher when bound to something large.)
The target in assay [1] is peptides with Tyr, Trp, Phe, or Leu at the N-terminus. As to the kind of experiment: fluorescence polarisation.
For assay [2], the target named is T1, C. crescentus ClpS residues 35-119 (Caulobacter crescentus, UniProt Q9A5I0 35-119).
T1 sequence (looked up): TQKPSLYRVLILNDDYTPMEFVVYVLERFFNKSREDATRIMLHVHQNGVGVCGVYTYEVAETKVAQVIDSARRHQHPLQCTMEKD
As to the kind of experiment: crystal structure.

Assay [3] addresses T1, C. crescentus ClpS residues 35-119. As to the kind of experiment: fluorescence polarisation.

Consider “Xxx-Leu-Phe-Val-Gln-Tyr-His6-Cys [Tyr peptide]”, for which the “affinity for Caulobacter ClpS (in words)” value at Caulobacter ClpS is “sub-micromolar”.

B1: C. crescentus ClpS residues 35-119 (domain or fragment)
chain: T1 sequence (looked up)
The molecule B1 had a Kd in assay [1] of 150 to 500 nM. As to YLFVQRDSKE [N-end rule decapeptide Tyr-Leu-Phe-Val-Gln-Arg-Asp-Ser-Lys-Glu], in assay [2], the binding result is given as “binds”. For FLFVQYHHHHHHC(fluorescein maleimide) [fluorescein-labelled N-end rule peptide Phe-Leu-Phe-Val-Gln-Tyr-His6-Cys], the binding result in assay [3] was “binds”.

In the case of LLFVQYHHHHHHC(fluorescein maleimide) [fluorescein-labelled N-end rule peptide Leu-Leu-Phe-Val-Gln-Tyr-His6-Cys], the binding result in assay [3] is on record as “binds”. Take WLFVQYHHHHHHC(fluorescein maleimide) [fluorescein-labelled N-end rule peptide Trp-Leu-Phe-Val-Gln-Tyr-His6-Cys]: the binding result in assay [3] was “binds”.

B2: E. coli ClpS D36A (natural protein)
chain: MGKTNDWLDFDQLAEEKVRDALKPPSMYKVILVNDAYTPMEFVIDVLQKFFSYDVERATQLMLAVHYQGKAICGVFTAEVAETKVAMVNKYARENEHPLLCTLEKA
On to B2, for which, in the assay with Tyr-GFP, the KM of ClpAP degradation of Tyr-GFP with the ClpS variant (900 nM), fold increase was found to be 2 fold.

B3: E. coli ClpS H66A (natural protein)
chain: B2 chain with A36D, H66A
As for B3, the KM of ClpAP degradation of Tyr-GFP with the ClpS variant (900 nM), fold increase with Tyr-GFP stood at 5 fold. For the molecule YLFVQYHHHHHHC(fluorescein maleimide) [fluorescein-labelled N-end rule peptide Tyr-Leu-Phe-Val-Gln-Tyr-His6-Cys], the Kd in assay [3] was about 400 nM.
